Starred links: 1 amine or outer side, 2 acyl side, 3 side chain; linkers in the order of their positions; H or OH if unused. Positions of bridges follow the written chain, without caps; N, C: chain ends. Non-standard residues stand in square brackets, D forms with d. No end group written: not given here. Phe(3R-OH) = O=C([C@@H](N[*:1])[C@H](O[*:3])c1ccccc1)[*:2]; Cha = N[C@@H](CC1CCCCC1)C(=O)O; dCha = N[C@H](CC1CCCCC1)C(=O)O; 4Amb = NCc1ccc(C(=O)O)cc1; Nle = CCCC[C@H](N)C(=O)O; Aib = CC(C)(N)C(=O)O
T1: human Y2 receptor (human, UniProt P49146 1-381)
T1 sequence (looked up): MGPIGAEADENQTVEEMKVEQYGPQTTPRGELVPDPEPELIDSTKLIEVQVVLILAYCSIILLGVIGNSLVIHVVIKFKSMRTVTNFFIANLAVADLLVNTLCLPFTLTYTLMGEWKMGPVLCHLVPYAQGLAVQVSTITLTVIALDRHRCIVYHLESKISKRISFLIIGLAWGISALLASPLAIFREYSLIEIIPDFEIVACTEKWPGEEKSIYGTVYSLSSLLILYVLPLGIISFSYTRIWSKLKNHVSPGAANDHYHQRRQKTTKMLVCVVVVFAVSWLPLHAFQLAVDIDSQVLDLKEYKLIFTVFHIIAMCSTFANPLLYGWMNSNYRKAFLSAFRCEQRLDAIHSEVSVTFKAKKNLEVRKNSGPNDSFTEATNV

B1: Ac-[Cha24, Ala26, Ile28,31]-PYY(24-36) (peptide)
peptide: Ac-[Cha]RAYINLITRQRY-NH2
SMILES: CC[C@H](C)[C@H](NC(=O)[C@H](Cc1ccc(O)cc1)NC(=O)[C@H](C)NC(=O)[C@H](CCCNC(=N)N)NC(=O)[C@H](CC1CCCCC1)NC(C)=O)C(=O)N[C@@H](CC(N)=O)C(=O)N[C@@H](CC(C)C)C(=O)N[C@H](C(=O)N[C@H](C(=O)N[C@@H](CCCNC(=N)N)C(=O)N[C@@H](CCC(N)=O)C(=O)N[C@@H](CCCNC(=N)N)C(=O)N[C@@H](Cc1ccc(O)cc1)C(N)=O)[C@@H](C)O)[C@@H](C)CC
notes: also called compound No. 36
B2: [Ala26, Ile28,31]-PYY(19-36) (peptide)
peptide: RYYASLRAYINLITRQRY-NH2
notes: also called compound No. 2
B3: Ac-[D-Pro24, Cha27,28, Aib31, threo-PhSer36]-PYY(23-36) (peptide)
peptide: Ac-S[dP]RH[Cha][Cha]NL[Aib]TRQR[Phe(3R-OH)]-NH2
SMILES: CC(=O)N[C@@H](CO)C(=O)N1CCC[C@@H]1C(=O)N[C@@H](CCCNC(=N)N)C(=O)N[C@@H](Cc1c[nH]cn1)C(=O)N[C@@H](CC1CCCCC1)C(=O)N[C@@H](CC1CCCCC1)C(=O)N[C@@H](CC(N)=O)C(=O)N[C@@H](CC(C)C)C(=O)NC(C)(C)C(=O)N[C@H](C(=O)N[C@@H](CCCNC(=N)N)C(=O)N[C@@H](CCC(N)=O)C(=O)N[C@@H](CCCNC(=N)N)C(=O)N[C@H](C(N)=O)[C@H](O)c1ccccc1)[C@@H](C)O
notes: also called compound No. 200
B4: cyclo(27-31)-4-Aminomethylbenzoyl-[Glu27, Ile28, Lys31]-PYY(25-36) (peptide)
peptide: [4Amb]RHEINLKTRQRY-NH2
modifications: lactam 4-8; N-terminus assumed
SMILES: CC[C@H](C)[C@@H]1NC(=O)[C@@H](NC(=O)[C@H](Cc2c[nH]cn2)NC(=O)[C@H](CCCNC(=N)N)NC(=O)c2ccc(CN)cc2)CCC(=O)NCCCC[C@@H](C(=O)N[C@H](C(=O)N[C@@H](CCCNC(=N)N)C(=O)N[C@@H](CCC(N)=O)C(=O)N[C@@H](CCCNC(=N)N)C(=O)N[C@@H](Cc2ccc(O)cc2)C(N)=O)[C@@H](C)O)NC(=O)[C@H](CC(C)C)NC(=O)[C@H](CC(N)=O)NC1=O
notes: also called compound No. 25
B5: Ac-[Phe24, Ala26, Ile28,31]-PYY(24-36) (peptide)
peptide: Ac-FRAYINLITRQRY-NH2
notes: also called compound No. 34
B6: Ac-[Pro24, Ala26, Ile28,31]-PYY(24-36) (peptide)
peptide: Ac-PRAYINLITRQRY-NH2
notes: also called compound No. 38
B7: [D-Leu24, Ala26, Ile28,31]-PYY(24-36) (peptide)
peptide: [dL]RAYINLITRQRY-NH2
modifications: N-terminus assumed
SMILES: CC[C@H](C)[C@H](NC(=O)[C@H](Cc1ccc(O)cc1)NC(=O)[C@H](C)NC(=O)[C@H](CCCNC(=N)N)NC(=O)[C@H](N)CC(C)C)C(=O)N[C@@H](CC(N)=O)C(=O)N[C@@H](CC(C)C)C(=O)N[C@H](C(=O)N[C@H](C(=O)N[C@@H](CCCNC(=N)N)C(=O)N[C@@H](CCC(N)=O)C(=O)N[C@@H](CCCNC(=N)N)C(=O)N[C@@H](Cc1ccc(O)cc1)C(N)=O)[C@@H](C)O)[C@@H](C)CC
notes: also called compound No. 24
B8: Ac-[D-Phe24, Ala26, Ile28,31]-PYY(24-36) (peptide)
peptide: Ac-[dF]RAYINLITRQRY-NH2
SMILES: CC[C@H](C)[C@H](NC(=O)[C@H](Cc1ccc(O)cc1)NC(=O)[C@H](C)NC(=O)[C@H](CCCNC(=N)N)NC(=O)[C@@H](Cc1ccccc1)NC(C)=O)C(=O)N[C@@H](CC(N)=O)C(=O)N[C@@H](CC(C)C)C(=O)N[C@H](C(=O)N[C@H](C(=O)N[C@@H](CCCNC(=N)N)C(=O)N[C@@H](CCC(N)=O)C(=O)N[C@@H](CCCNC(=N)N)C(=O)N[C@@H](Cc1ccc(O)cc1)C(N)=O)[C@@H](C)O)[C@@H](C)CC
notes: also called compound No. 35
B9: cyclo(28-32)-4-Aminomethylbenzoyl-[Lys28, Ile31, Glu32]-PYY(25-36) (peptide)
peptide: [4Amb]RHYKNLIERQRY-NH2
modifications: lactam 5-9; N-terminus assumed
SMILES: CC[C@H](C)[C@@H]1NC(=O)[C@H](CC(C)C)NC(=O)[C@H](CC(N)=O)NC(=O)[C@@H](NC(=O)[C@H](Cc2ccc(O)cc2)NC(=O)[C@H](Cc2c[nH]cn2)NC(=O)[C@H](CCCNC(=N)N)NC(=O)c2ccc(CN)cc2)CCCCNC(=O)CC[C@@H](C(=O)N[C@@H](CCCNC(=N)N)C(=O)N[C@@H](CCC(N)=O)C(=O)N[C@@H](CCCNC(=N)N)C(=O)N[C@@H](Cc2ccc(O)cc2)C(N)=O)NC1=O
notes: also called compound No. 26
B10: Ac-[D-Cha24, Ala26, Ile28,31]-PYY(24-36) (peptide)
peptide: Ac-[dCha]RAYINLITRQRY-NH2
SMILES: CC[C@H](C)[C@H](NC(=O)[C@H](Cc1ccc(O)cc1)NC(=O)[C@H](C)NC(=O)[C@H](CCCNC(=N)N)NC(=O)[C@@H](CC1CCCCC1)NC(C)=O)C(=O)N[C@@H](CC(N)=O)C(=O)N[C@@H](CC(C)C)C(=O)N[C@H](C(=O)N[C@H](C(=O)N[C@@H](CCCNC(=N)N)C(=O)N[C@@H](CCC(N)=O)C(=O)N[C@@H](CCCNC(=N)N)C(=O)N[C@@H](Cc1ccc(O)cc1)C(N)=O)[C@@H](C)O)[C@@H](C)CC
notes: also called compound No. 37
B11: 4-Aminomethylbenzoyl-[Ala26, Nle28, Ile31]-PYY(25-36) (peptide)
peptide: [4Amb]RAY[Nle]NLITRQRY-NH2
modifications: N-terminus assumed
SMILES: CCCC[C@H](NC(=O)[C@H](Cc1ccc(O)cc1)NC(=O)[C@H](C)NC(=O)[C@H](CCCNC(=N)N)NC(=O)c1ccc(CN)cc1)C(=O)N[C@@H](CC(N)=O)C(=O)N[C@@H](CC(C)C)C(=O)N[C@H](C(=O)N[C@H](C(=O)N[C@@H](CCCNC(=N)N)C(=O)N[C@@H](CCC(N)=O)C(=O)N[C@@H](CCCNC(=N)N)C(=O)N[C@@H](Cc1ccc(O)cc1)C(N)=O)[C@@H](C)O)[C@@H](C)CC
notes: also called compound No. 21
B12: 4-({[imino(octylamino)methyl]amino}methyl)benzoyl-[Ala26, Ile28,31]-PYY(25-36) (peptide)
peptide: {4‑(((imino(octylamino)methyl)amino)methyl)benzoyl}-RAYINLITRQRY-NH2
notes: also called compound No. 28
B13: [D-Arg23, Ala26, Ile28,31]-PYY(23-36) (peptide)
peptide: [dR]LRAYINLITRQRY-NH2
modifications: N-terminus assumed
SMILES: CC[C@H](C)[C@H](NC(=O)[C@H](Cc1ccc(O)cc1)NC(=O)[C@H](C)NC(=O)[C@H](CCCNC(=N)N)NC(=O)[C@H](CC(C)C)NC(=O)[C@H](N)CCCNC(=N)N)C(=O)N[C@@H](CC(N)=O)C(=O)N[C@@H](CC(C)C)C(=O)N[C@H](C(=O)N[C@H](C(=O)N[C@@H](CCCNC(=N)N)C(=O)N[C@@H](CCC(N)=O)C(=O)N[C@@H](CCCNC(=N)N)C(=O)N[C@@H](Cc1ccc(O)cc1)C(N)=O)[C@@H](C)O)[C@@H](C)CC
notes: also called compound No. 27

These binders were tested against T1, human Y2 receptor (assay: cell-based or functional assay).

GBA EC50 Ratio (vs PYY(3-36)), [35S]GTPγS | Binder
13 ratio | B1
2.1 ratio | B2
10 ratio | B3
16 ratio | B4
14 ratio | B5
26 ratio | B6
9.4 ratio | B7
8.7 ratio | B8
11 ratio | B9
4.6 ratio | B10
3.6 ratio | B11
12 ratio | B12
3.6 ratio | B13

These binders were tested against T1, human Y2 receptor (assay: RBA: [125I]-PYY displacement, hY2R/CHO membranes).
How it was run: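 Bound radioligand was collected by filtration on PEI-treated GF/C filters, washed with Tris/MgCl₂/NaCl/CHAPS buffer pH 7.4, and counted by scintillation; IC₅₀ values were calculated.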

IC50 Ratio (vs PYY(3-36)) | Binder
17 ratio | B1
4.9 ratio | B2
16 ratio | B3
30 ratio | B4
25 ratio | B5
52 ratio | B6
14 ratio | B7
14 ratio | B8
18 ratio | B9
7.6 ratio | B10
4.1 ratio | B11
14 ratio | B12
4.5 ratio | B13
